Data taken from patent US20220064329A1 (Novo Nordisk, published 2022).
Where a chain is given by its changes, count along the chain named. Numbers in names are those of the source.

T1: recombinant human activated Factor VII (FVIIa) (human, UniProt P08709 61-212; P08709 213-466, ten glutamate residues of the Gla domain may be gamma-carboxylated)
T1 construct: chains tethered by a disulfide bond; also called Factor VIIa; rFVIIa
T1 sequence 1: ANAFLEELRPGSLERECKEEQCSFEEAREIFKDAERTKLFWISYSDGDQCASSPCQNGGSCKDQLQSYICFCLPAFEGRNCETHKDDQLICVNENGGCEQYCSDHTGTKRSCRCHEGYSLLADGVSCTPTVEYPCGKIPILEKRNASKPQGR
T1 sequence 2: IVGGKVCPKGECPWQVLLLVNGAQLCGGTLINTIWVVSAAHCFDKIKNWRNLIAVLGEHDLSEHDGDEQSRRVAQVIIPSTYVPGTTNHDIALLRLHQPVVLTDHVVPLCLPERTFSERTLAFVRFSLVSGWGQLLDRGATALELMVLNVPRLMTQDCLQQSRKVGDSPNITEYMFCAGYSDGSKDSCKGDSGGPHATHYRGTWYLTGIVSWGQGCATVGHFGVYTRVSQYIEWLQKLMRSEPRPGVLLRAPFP

B1: VH SEQ ID NO 314 / VL SEQ ID NO 502 (antibody, IgG4, V domains shown)
VH: QVQLQESGPGLVEPSDTLSLTCAVSGYSISSDSAWSWIRQPPGKGLEWIGYIQYSGSTNYNPSLKSRVTMSVDTSKNQFSLKLSSVTALDTAVYYCARSVNYYGNSFAVGPWGQGTLVTVSS
VL: EIVLTQSPATLSLSPGERATLSCRASQGVSDYLHWYQQKPGQAPRLLIKYTSQPATGIPARFSGSGSGTDFTLTISSLEPEDFAVYYCQNGHSFPLTFGQGTKLEIK
notes: humanized 11F2; IgG4 S228P/kappa
B2: VH SEQ ID NO 522 / VL SEQ ID NO 342 (antibody, IgG4, V domains shown)
VH: B1 VH with D16Q, A23T, M70I, V72R, L89A
VL: B1 VL with V29I, T69R, Q100A, I106L
notes: as for B1
B3: VH SEQ ID NO 514 / VL SEQ ID NO 406 (antibody, IgG4, V domains shown)
VH: B1 VH with S30T, G45K, V72R, P111Y
VL: B1 VL with H34A, T51A, Q100A
notes: as for B1
B4: VH SEQ ID NO 314 / VL SEQ ID NO 382 (antibody, IgG4, V domains shown)
VH: B1 VH
VL: B1 VL with V29L, Q42E, T51A
notes: as for B1
B5: VH SEQ ID NO 314 / VL SEQ ID NO 358 (antibody, IgG4, V domains shown)
VH: B1 VH
VL: B1 VL with V29I
notes: as for B1
B6: VH SEQ ID NO 314 / VL SEQ ID NO 318 (antibody, IgG4, V domains shown)
VH: B1 VH
VL: B1 VL with V29I, Q42E
notes: as for B1
B7: VH SEQ ID NO 514 / VL SEQ ID NO 478 (antibody, IgG4, V domains shown)
VH: B1 VH with S30T, G45K, V72R, P111Y
VL: B1 VL with T51A, N90Q
notes: as for B1
B8: VH SEQ ID NO 514 / VL SEQ ID NO 350 (antibody, IgG4, V domains shown)
VH: B1 VH with S30T, G45K, V72R, P111Y
VL: B1 VL with V29I, Q100A, I106L
notes: as for B1
B9: VH SEQ ID NO 514 / VL SEQ ID NO 382 (antibody, IgG4, V domains shown)
VH: B1 VH with S30T, G45K, V72R, P111Y
VL: B1 VL with V29L, Q42E, T51A
notes: as for B1
B10: VH SEQ ID NO 314 / VL SEQ ID NO 462 (antibody, IgG4, V domains shown)
VH: B1 VH
VL: B1 VL with T51A, Q100A
notes: as for B1
B11: VH SEQ ID NO 514 / VL SEQ ID NO 446 (antibody, IgG4, V domains shown)
VH: B1 VH with S30T, G45K, V72R, P111Y
VL: B1 VL with H34A
notes: as for B1
B12: VH SEQ ID NO 522 / VL SEQ ID NO 310 (antibody, IgG4, V domains shown)
VH: B1 VH with D16Q, A23T, M70I, V72R, L89A
VL: B1 VL with V29I, H34A, T51A
notes: as for B1
B13: VH SEQ ID NO 314 / VL SEQ ID NO 326 (antibody, IgG4, V domains shown)
VH: B1 VH
VL: B1 VL with V29I, Q42E, A84G, Q100A, I106L
notes: as for B1
B14: VH SEQ ID NO 514 / VL SEQ ID NO 318 (antibody, IgG4, V domains shown)
VH: B1 VH with S30T, G45K, V72R, P111Y
VL: B1 VL with V29I, Q42E
notes: as for B1
B15: VH SEQ ID NO 522 / VL SEQ ID NO 334 (antibody, IgG4, V domains shown)
VH: B1 VH with D16Q, A23T, M70I, V72R, L89A
VL: B1 VL with V29I, T51A
notes: as for B1
B16: VH SEQ ID NO 514 / VL SEQ ID NO 462 (antibody, IgG4, V domains shown)
VH: B1 VH with S30T, G45K, V72R, P111Y
VL: B1 VL with T51A, Q100A
notes: as for B1
B17: VH SEQ ID NO 514 / VL SEQ ID NO 366 (antibody, IgG4, V domains shown)
VH: B1 VH with S30T, G45K, V72R, P111Y
VL: B1 VL with V29L, H34A, Q42E, T51A
notes: as for B1
B18: VH SEQ ID NO 522 / VL SEQ ID NO 326 (antibody, IgG4, V domains shown)
VH: B1 VH with D16Q, A23T, M70I, V72R, L89A
VL: B1 VL with V29I, Q42E, A84G, Q100A, I106L
notes: as for B1
B19: VH SEQ ID NO 514 / VL SEQ ID NO 398 (antibody, IgG4, V domains shown)
VH: B1 VH with S30T, G45K, V72R, P111Y
VL: B1 VL with H34A, Q42E
notes: as for B1
B20: VH SEQ ID NO 514 / VL SEQ ID NO 438 (antibody, IgG4, V domains shown)
VH: B1 VH with S30T, G45K, V72R, P111Y
VL: B1 VL with H34A, T51A, F83V
notes: as for B1
B21: VH SEQ ID NO 514 / VL SEQ ID NO 430 (antibody, IgG4, V domains shown)
VH: B1 VH with S30T, G45K, V72R, P111Y
VL: B1 VL with H34A, T51A, A84G
notes: as for B1
B22: VH SEQ ID NO 314 / VL SEQ ID NO 470 (antibody, IgG4, V domains shown)
VH: B1 VH
VL: B1 VL with T51A
notes: as for B1

Biological target: T1, recombinant human activated Factor VII …
Assay: BLI (Fortebio)
Experimental: All steps were performed in running buffer (20 mM HEPES buffer (pH 7.4), 150 mM NaCl, 5 mM CaCl2, 0.03% Tween 20, 1 mg/ml IgG-free BSA) at […] Antibodies were captured on anti-human tips (AHC, Fortebio) for 3 min at a concentration of 10 ug/ml. This was followed by a 3 min incubation to establish a baseline. Following this, association was monitored for 3 min using four different concentrations of VIIa (25 nm, 50 nM, 100 nM, and 200 nM), followed by a 3 mi dissociation. Sensorgrams were analysed using Fortebio data analysis software.

| Kd | Binder |
| --- | --- |
| 25 nM | B1 |
| 1.4 nM | B2 |
| 5.3 nM | B3 |
| 27 nM | B4 |
| 18 nM | B5 |
| 17 nM | B6 |
| 1.9 nM | B7 |
| 0.94 nM | B8 |
| 1.2 nM | B9 |
| 26 nM | B10 |
| 7.7 nM | B11 |
| 8.3 nM | B12 |
| 15 nM | B13 |
| 0.99 nM | B14 |
| 1.2 nM | B15 |
| 1.2 nM | B16 |
| 1.4 nM | B17 |
| 0.81 nM | B18 |
| 7.9 nM | B19 |
| 5.4 nM | B20 |
| 7.1 nM | B21 |
| 20 nM | B22 |
